# Test results: the supplement of paper PMC9732359
# ± gives the uncertainty stated by the source.
# Test: protein stability index of a GFP-peptide fusion (yeast GPS) (PSI 1-4); higher = more stable; sorted into four equal gates, so the index is relative within each strain
# In short: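 Plasmids isolated from each sorting gate were PCR-amplified and Illumina-sequenced, and barcodes assigned the reads to strains. The gates, four of equal size, were set by GFP/Cherry fluorescence ratio on mid-log cultures in leucine-free medium. These cultures were yeast carrying a pooled library of tiled 17-residue yeast protein peptides fused downstream of GFP on a plasmid that also expresses Cherry. The protein stability index is the sum of every gate's read frequency times its gate number.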
Sequence,protein stability index (doa10∆),protein stability index (pdr5∆),protein stability index (san1∆),protein stability index (ubr1∆)
DLQLLYVESDEDDTQIV [IRR1],3.32 ± 0.17,3.21 ± 0.14,3.07 ± 0.084,3.16 ± 0.12
SPHYNSQKQTLIKKPLT [SSN3],2.52 ± 0.064,2.87 ± 0.056,2.46 ± 0.058,2.65 ± 0.036
LKSFTESTAGSASTSAT [ECM29],2.82 ± 0.067,3.14 ± 0.061,3.06 ± 0.053,3.15 ± 0.04
QGGAMNKKSEQALDISK [SRP72],3.07 ± 0.067,3.12 ± 0.058,3 ± 0.043,3.07 ± 0.063
QIGQVPLAPAPINLPPQ [SNF5],2.35 ± 0.08,2.47 ± 0.081,2.4 ± 0.14,2.5 ± 0.079
RDYLVDTLKLRENLHIL [RRP6],3.52 ± 0.098,3.29 ± 0.096,3.4 ± 0.069,3.29 ± 0.084
SNADTNQNSDMKKKLEL [SRB8],3.14 ± 0.13,3.21 ± 0.15,2.75 ± 0.11,3.31 ± 0.17
IILKTRQINKLIDSLPG [SRB7],2.31 ± 0.071,2.11 ± 0.047,2.62 ± 0.067,2.51 ± 0.058
VRNYKPLINRLKHYNGY [SWI1],1.79 ± 0.048,2.2 ± 0.045,2.57 ± 0.06,2.54 ± 0.039
WESLAKKQNLSSHQRVF [SWP82],2.77 ± 0.063,2.71 ± 0.071,2.83 ± 0.06,2.91 ± 0.053
ENSANSTVASALDTNGT [SIR4],3.08 ± 0.097,3.18 ± 0.073,2.79 ± 0.09,2.86 ± 0.069
NLERLRSDLQSKIQEIE [YIL149C/MLP2],3.08 ± 0.077,3.37 ± 0.076,3.49 ± 0.073,3.33 ± 0.1
SVLNPFLLRRVKADVEK [ISW2],1.15 ± 0.14,1.09 ± 0.068,1.18 ± 0.15,1.31 ± 0.12
GSSSIIYYDSYIHLAYS [SSN2],2.56 ± 0.11,2.61 ± 0.12,2.7 ± 0.068,2.79 ± 0.28
SDSIEKIVEIDRHIGCA [PUP2],–,3.11 ± 0.24,2.74 ± 0.13,2.82 ± 0.19
FVQLCEMGYLIQISKLH [RPC82],1.74 ± 0.05,1.95 ± 0.064,1.77 ± 0.1,1.96 ± 0.058
LYRYRFDPFQAVSRSMT [ECM29],2.57 ± 0.067,2.65 ± 0.049,2.76 ± 0.057,2.74 ± 0.043
ERSLAVKYINFGKTVKD [RPC31],3.09 ± 0.088,3.18 ± 0.1,2.99 ± 0.046,2.88 ± 0.058
NTGGESVVKKEDNKYAI [RGR1],3.51 ± 0.1,3.39 ± 0.1,3.33 ± 0.094,3.4 ± 0.085
EQRHLKRELKRAQEEVK [RPT3],3.13 ± 0.077,3.37 ± 0.12,2.95 ± 0.089,3.17 ± 0.078
WTMRIEGRLLDNVQAND [SNF12],2.48 ± 0.09,2.96 ± 0.096,2.7 ± 0.065,2.93 ± 0.047
KEIYYTPDPSELAAKEE [FAS2],2.631 ± 0.023,2.748 ± 0.023,2.601 ± 0.024,2.531 ± 0.017
IPSLQNNIEENLRLLNS [ECM29],3.13 ± 0.065,3.17 ± 0.061,3.34 ± 0.055,3.25 ± 0.061
RLANLIDYKLRVLTQDG [SMB1],2.65 ± 0.089,2.69 ± 0.08,1.62 ± 0.13,2.79 ± 0.047
TRPLTLSHGSLEHVLLV [FAS1],2.39 ± 0.068,2.72 ± 0.076,2.67 ± 0.068,3.12 ± 0.065
IGEFNVSMYQNSSTSST [YDL088C/ASM4],3.61 ± 0.28,1.97 ± 0.13,–,2.17 ± 0.098
AKYHAKLNKKLQHLRSR [SRP68],3.3 ± 0.088,3.44 ± 0.078,3.26 ± 0.046,3.07 ± 0.059

Sequence,protein stability index (doa10∆),protein stability index (pdr5∆),protein stability index (san1∆),protein stability index (ubr1∆)
LDDWISIGYETELKKIT [IRR1],2.09 ± 0.07,2.75 ± 0.078,2.33 ± 0.14,2.58 ± 0.053
NRLSRIHLYMLTFHTLK [YLR018C/POM34],1.42 ± 0.068,1.58 ± 0.06,1.54 ± 0.12,1.44 ± 0.047
KDKLREFIPHSTEYMMQ [RPN6],3.46 ± 0.11,3.22 ± 0.11,2.83 ± 0.075,2.63 ± 0.087
GSELSSKIRKIHIQETQ [SIR3],2.61 ± 0.069,2.54 ± 0.084,2.58 ± 0.075,2.68 ± 0.056
FGKTGDQKETKKGESEK [YOR098C/NUP1],3.4 ± 0.1,3.4 ± 0.11,3.45 ± 0.076,3.35 ± 0.061
ISTSDVTRIINSSEIQS [RPL4A],2.39 ± 0.04,2.64 ± 0.054,2.34 ± 0.071,2.58 ± 0.043
FKCQEKDKGVYVVTSDE [SIR2],2.94 ± 0.076,3.08 ± 0.085,3.27 ± 0.072,3.34 ± 0.054
PDGLGEVGMKVQSGQIY [RET1],3.27 ± 0.14,3.15 ± 0.12,2.91 ± 0.094,3.21 ± 0.25
IFTDFLPSSNGSSRIIA [RRP42],3.15 ± 0.085,2.89 ± 0.084,3.07 ± 0.073,2.8 ± 0.069
YSKIPNILSNKPGQNNR [RRP6],2.16 ± 0.087,2.37 ± 0.074,1.99 ± 0.16,1.77 ± 0.047
KAKERLQALKANDEEAY [SNF2],1.81 ± 0.14,2.51 ± 0.15,2.55 ± 0.067,1.77 ± 0.045
SQKAKLMTFNAETKSYD [YLR335W/NUP2],2.55 ± 0.065,2.27 ± 0.046,2.3 ± 0.057,2.92 ± 0.053
SVDICNNSKSRYPMNLL [ECM29],1.86 ± 0.1,2.35 ± 0.056,2.71 ± 0.077,1.31 ± 0.079
TLLVIRRLHKVLRPFLL [SNF2],1.26 ± 0.12,1.34 ± 0.093,1.34 ± 0.16,1.09 ± 0.08
GKHSIGLIWYLLAREVL [RPS0A],1.59 ± 0.073,1.87 ± 0.064,1.65 ± 0.1,2.06 ± 0.054
YIEEKHPTIYESLPQYV [POP4],2.33 ± 0.044,2.39 ± 0.048,1.91 ± 0.052,2.06 ± 0.045
QFVDMVLPNTALKTSIQ [FAS1],2.5 ± 0.091,1.61 ± 0.05,1.58 ± 0.12,1.28 ± 0.039
GLFQVLHNFESVAPTKQ [NUT1],2.99 ± 0.075,2.87 ± 0.075,2.75 ± 0.052,3.12 ± 0.035
VANVKDLETLTMHTKTY [RPL32],3.08 ± 0.13,3.01 ± 0.11,2.98 ± 0.075,2.95 ± 0.077
IIKGTDVYSPEKGSWEQ [BRR2],3.1 ± 0.06,3.35 ± 0.075,3.24 ± 0.11,3.25 ± 0.13
ENELVITSIPKPLTENC [RMP1],3.42 ± 0.14,3.4 ± 0.11,3.39 ± 0.066,3.1 ± 0.07
QASDPSKKKKNIKKKDT [RPC53],3.26 ± 0.17,3.5 ± 0.13,3.2 ± 0.088,3.3 ± 0.21
AKAKRRHTTGTGRMRYL [RPL37A],3.14 ± 0.14,3.22 ± 0.083,2.99 ± 0.16,3.62 ± 0.16
QCPVKSAEDQLYAITFR [QCR2],3.14 ± 0.12,2.83 ± 0.25,3.13 ± 0.14,3.09 ± 0.16
ALLTVLKALSHHYNPKT [BRR2],2.28 ± 0.07,2.25 ± 0.051,1.91 ± 0.081,2.41 ± 0.062
IISSNENALIELKNELA [YIL149C/MLP2],2.53 ± 0.15,2.93 ± 0.077,2.71 ± 0.14,3.07 ± 0.12
